The values that follow come from patent US20130039850A1.

Experiment [1] deals with recombinant soluble human CD4 (human) (UniProt P01730). Description: BIAcore; rCD4 coupled to chip, mAb flowed (avidity).
For experiment [2] the target is unchanged. Description: SPR sensor chip; sCD4 amine-coupled, antibody flowed over.

Turning to “mouse anti-human CD4 monoclonal antibody Leu3a (Becton Dickinson)”, in experiment [1], the Ka was 3.7e+10 M⁻¹, the koff stood at 4.2e-06 s⁻¹ and the kon was 150000 M⁻¹ s⁻¹. Moreover, in experiment [2], the Ka amounted to 3.7e+10 M⁻¹, the koff was found to be 4.2e-05 s⁻¹ and the kon was 150000 M⁻¹ s⁻¹.
